In assay [1] the test system is NY-ESO 1G4 TCR transduced Jurkat cells. Nature of the assay: TMG-expressing BCL-6/BCL-xL B cells with or without CD40L, co-culture with TCR Jurkat cells, CD69 (Example 7). The format is cell-based, human. The following applies: BCL-6/BCL-xL immortalized B cells, two donors, 20 hours. The protocol:
(§1) B cells from two healthy donors are isolated and immortalized by transduction with BCL-6/BCL-xL as described in Example 5 and 10 of this invention. In this Example, B cells are either transduced with BCL-6/BCL-xL alone or in combination with a CD40L transgene. After immortalization B cells are transduced with different TMG constructs encoding different numbers of 25mer polypeptides (1, 3, 12 or 40) and including LAMP1 signaling and transmembrane sequences. 96 hours post-transductions TMG-expressing B cells are enriched by antibiotic resistance selection as described in Examples 5 and 10. […]
(§2) TCR expressing Jurkat T cells specific for two NY-ESO-1 derived T cell epitopes (5B8 epitope SLLMWITQCFLPVF; SEQ ID NO: 3; MHC-class II restricted T cell epitope and 1G4 epitope SLLMWITQC; SEQ ID NO: 4; MHC-class I restricted T cell epitope) are generated as described in Examples 5 and 10. […] After co-culture, CD69 expression by TCR transduced Jurkat T cells is measured by flow cytometry.
(§3) FIG. 11A is Donor 1: NY-ESO 1G4 TCR transduced T cell reactivity towards TMG transduced BCL-6/BCL-XL immortalized B cells with or without CD40L. […] NY-ESO 1G4 TCR transduced Jurkat cells directed against one of the epitopes presented on Class I were then co-cultured with the B cells and reactivity was assessed by flowcytometry focusing on upregulation of CD69 on T cells. […]

Assay [2] relates to NY-ESO 5B8 TCR transduced Jurkat cells. The assay is described as above. Format: cell-based, human. The following applies: BCL-6/BCL-xL immortalized B cells, two donors, 20 hours. Here is the method: as §1, §2, §3

B1: CD40L transgene: hCD40L transgene expressed in BCL-6/BCL-xL immortalized B cells (protein)
DNA: MIETYNQTSPRSAATGLPISMKIFMYLLTVFLITQMIGSALFAVYLHRRLDKIEDERNLHEDFVFMKTIQRCNTGERSLSLLNCEEIKSQFEGFVKDIMLNKEETKKENSFEMQKGDQNPQIAAHVISEASSKTTSVLQWAEKGYYTMSNNLVTLENGKQLTVKRQGLYYIYAQVTFCSNREASSQAPFIASLCLKSPGRFERILLRAANTHSSAKPCGQQSIHLGGVFELQPGASVFVNVTDPSQVSHGTGFTSFGLLKL
In the case of B1, in assay [1], the “MHC-class I antigen-presentation (CD69 expression by TCR transduced Jurkat T cells)” value is reported as “can increase”. Also, in assay [2], the “MHC-class II antigen presentation (CD69 expression by TCR transduced Jurkat T cells)” value is “can increase”.

The record behind these values is patent publication US20220228164A1, “ENGINEERED ANTIGEN PRESENTING CELLS” (Neogene Therapeutics B.V., priority 2021, published 2022).
